Reference: US20250368745A1 (published 2025)

T1: cynomolgus IL-18BP (cynomolgus monkey)
T1 construct: Generated in-house; also called cyIL-18BP; cyno IL-18BP
T1 chain: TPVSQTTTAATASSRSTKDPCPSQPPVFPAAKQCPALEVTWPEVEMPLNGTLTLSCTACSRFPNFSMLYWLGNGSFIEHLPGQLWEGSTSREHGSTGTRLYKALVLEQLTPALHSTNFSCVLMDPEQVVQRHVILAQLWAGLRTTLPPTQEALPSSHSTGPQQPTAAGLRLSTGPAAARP

T2: cynomolgus IL-18BP (cynomolgus monkey)
T2 construct: also called cyno IL-18BP; cyIL-18BP
T2 chain: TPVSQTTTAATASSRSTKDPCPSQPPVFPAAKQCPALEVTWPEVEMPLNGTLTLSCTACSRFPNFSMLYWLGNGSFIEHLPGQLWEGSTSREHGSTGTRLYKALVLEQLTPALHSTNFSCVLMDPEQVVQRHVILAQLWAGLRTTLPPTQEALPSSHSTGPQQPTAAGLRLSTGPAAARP

T3: human IL-18BP (human, UniProt O95998 31-194)
T3 construct: UniProt printed as 095998; also called hIL-18BP
T3 sequence: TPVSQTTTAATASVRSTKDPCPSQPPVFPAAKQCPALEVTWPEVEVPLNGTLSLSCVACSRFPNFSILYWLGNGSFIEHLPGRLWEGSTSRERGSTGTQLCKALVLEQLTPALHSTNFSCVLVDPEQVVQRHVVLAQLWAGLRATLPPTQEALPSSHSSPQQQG

T4: human IL-18BP (interleukin-18 binding protein, isoform A) (human, UniProt O95998 31-194)
T4 construct: cell assays used Sino Biological 10357-H08H; PBMC assay 1 relies on endogenous IL-18BP; UniProt number is printed as 095998; also called hIL-18BP
T4 sequence: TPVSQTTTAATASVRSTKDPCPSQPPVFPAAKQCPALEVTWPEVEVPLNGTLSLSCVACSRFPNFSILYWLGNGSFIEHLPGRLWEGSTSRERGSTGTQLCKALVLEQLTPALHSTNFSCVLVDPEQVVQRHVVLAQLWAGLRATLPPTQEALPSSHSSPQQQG


How the values were obtained:
cynomolgus IL-18BP [1] = target: T1, cynomolgus IL-18BP; assay: BLI single-concentration screen, apparent KD
cynomolgus IL-18BP [2] = target: T2, cynomolgus IL-18BP; assay: BLI, apparent KD
human IL-18BP = target: T3, human IL-18BP; assay: BLI, apparent KD
[3] = target: T4, human IL-18BP (interleukin-18 binding …); assay: BLI single-concentration screen, apparent KD

Binder | Kd (cynomolgus IL-18BP [1]) | Kd (cynomolgus IL-18BP [2]) | Kd (human IL-18BP) | Kd [3]
SA301a heavy chain variant N33bD, C34S (antibody, human IgG1, V domains shown, library variant, human IgG1/kappa, from supernatant) VH: QVQLQESGPGLVKPSQTLSLTCTVSGYSITSDYDSHWIRQPPGKGLEWIGYIHYSGSTNYNPSLKSRVTISRDTSKNQFSLKLSSVTAADTAVYYCARNYGSIYVNYFDYWGQGTLVTVSS VL: EIVLTQSPATLSLSPGERATLSCSASSSVSYMYWYQQKPGQAPRPLIYRTSNLASGIPARFSGSGSGTDFTLTISSLEPEDFAVYYCQQYHSYPTFGGGTKVEIK | 0.1 nM |  |  | 
SA301a HC-Y50V (antibody, name in Kabat numbering, V domains shown, IgG1 kappa) VH: QVQLQESGPGLVKPSQTLSLTCTVSGYSITSDYNSHWIRQPPGKGLEWIGVIHYSGSTNYNPSLKSRVTISRDTSKNQFSLKLSSVTAADTAVYYCARNYGSIYVNYFDYWGQGTLVTVSS VL: EIVLTQSPATLSLSPGERATLSCSASSSVSYMYWYQQKPGQAPRPLIYRTSNLASGIPARFSGSGSGTDFTLTISSLEPEDFAVYYCQQYHSYPTFGGGTKVEIK |  | 10.2 nM | 1.96 nM | 
SA301a HC-Y50K (antibody, name in Kabat numbering, V domains shown, IgG1 kappa) VH: QVQLQESGPGLVKPSQTLSLTCTVSGYSITSDYNSHWIRQPPGKGLEWIGKIHYSGSTNYNPSLKSRVTISRDTSKNQFSLKLSSVTAADTAVYYCARNYGSIYVNYFDYWGQGTLVTVSS VL: EIVLTQSPATLSLSPGERATLSCSASSSVSYMYWYQQKPGQAPRPLIYRTSNLASGIPARFSGSGSGTDFTLTISSLEPEDFAVYYCQQYHSYPTFGGGTKVEIK |  | 2.43 nM | 1.08 nM | 
SA301a HC-Y50H (antibody, name in Kabat numbering, V domains shown, IgG1 kappa) VH: QVQLQESGPGLVKPSQTLSLTCTVSGYSITSDYNSHWIRQPPGKGLEWIGHIHYSGSTNYNPSLKSRVTISRDTSKNQFSLKLSSVTAADTAVYYCARNYGSIYVNYFDYWGQGTLVTVSS VL: EIVLTQSPATLSLSPGERATLSCSASSSVSYMYWYQQKPGQAPRPLIYRTSNLASGIPARFSGSGSGTDFTLTISSLEPEDFAVYYCQQYHSYPTFGGGTKVEIK |  | 3.87 nM | 1.87 nM | 
SA301a HC-Y50P (antibody, name in Kabat numbering, V domains shown, IgG1 kappa) VH: QVQLQESGPGLVKPSQTLSLTCTVSGYSITSDYNSHWIRQPPGKGLEWIGPIHYSGSTNYNPSLKSRVTISRDTSKNQFSLKLSSVTAADTAVYYCARNYGSIYVNYFDYWGQGTLVTVSS VL: EIVLTQSPATLSLSPGERATLSCSASSSVSYMYWYQQKPGQAPRPLIYRTSNLASGIPARFSGSGSGTDFTLTISSLEPEDFAVYYCQQYHSYPTFGGGTKVEIK |  | 4.49 nM | 1.08 nM | 
SA301a HC-Y50E (antibody, name in Kabat numbering, V domains shown, IgG1 kappa) VH: QVQLQESGPGLVKPSQTLSLTCTVSGYSITSDYNSHWIRQPPGKGLEWIGEIHYSGSTNYNPSLKSRVTISRDTSKNQFSLKLSSVTAADTAVYYCARNYGSIYVNYFDYWGQGTLVTVSS VL: EIVLTQSPATLSLSPGERATLSCSASSSVSYMYWYQQKPGQAPRPLIYRTSNLASGIPARFSGSGSGTDFTLTISSLEPEDFAVYYCQQYHSYPTFGGGTKVEIK |  | 8.97 nM | 3.44 nM | 
SA301a HC-Y50Q (antibody, name in Kabat numbering, V domains shown, IgG1 kappa) VH: QVQLQESGPGLVKPSQTLSLTCTVSGYSITSDYNSHWIRQPPGKGLEWIGQIHYSGSTNYNPSLKSRVTISRDTSKNQFSLKLSSVTAADTAVYYCARNYGSIYVNYFDYWGQGTLVTVSS VL: EIVLTQSPATLSLSPGERATLSCSASSSVSYMYWYQQKPGQAPRPLIYRTSNLASGIPARFSGSGSGTDFTLTISSLEPEDFAVYYCQQYHSYPTFGGGTKVEIK |  | 1.12 nM | 1.13 nM | 
SA301a HC-Y50I (antibody, name in Kabat numbering, V domains shown, IgG1 kappa) VH: QVQLQESGPGLVKPSQTLSLTCTVSGYSITSDYNSHWIRQPPGKGLEWIGIIHYSGSTNYNPSLKSRVTISRDTSKNQFSLKLSSVTAADTAVYYCARNYGSIYVNYFDYWGQGTLVTVSS VL: EIVLTQSPATLSLSPGERATLSCSASSSVSYMYWYQQKPGQAPRPLIYRTSNLASGIPARFSGSGSGTDFTLTISSLEPEDFAVYYCQQYHSYPTFGGGTKVEIK |  | 6.42 nM | 3.37 nM | 
SA301a HC-I51V (antibody, name in Kabat numbering, V domains shown, IgG1 kappa) VH: QVQLQESGPGLVKPSQTLSLTCTVSGYSITSDYNSHWIRQPPGKGLEWIGYVHYSGSTNYNPSLKSRVTISRDTSKNQFSLKLSSVTAADTAVYYCARNYGSIYVNYFDYWGQGTLVTVSS VL: EIVLTQSPATLSLSPGERATLSCSASSSVSYMYWYQQKPGQAPRPLIYRTSNLASGIPARFSGSGSGTDFTLTISSLEPEDFAVYYCQQYHSYPTFGGGTKVEIK |  | 0.55 nM | 0.3 nM | 
SA301a HC-Y50L (antibody, name in Kabat numbering, V domains shown, IgG1 kappa) VH: QVQLQESGPGLVKPSQTLSLTCTVSGYSITSDYNSHWIRQPPGKGLEWIGLIHYSGSTNYNPSLKSRVTISRDTSKNQFSLKLSSVTAADTAVYYCARNYGSIYVNYFDYWGQGTLVTVSS VL: EIVLTQSPATLSLSPGERATLSCSASSSVSYMYWYQQKPGQAPRPLIYRTSNLASGIPARFSGSGSGTDFTLTISSLEPEDFAVYYCQQYHSYPTFGGGTKVEIK |  | 1.7 nM | 2.56 nM | 
SA301a HC-I51Y (antibody, name in Kabat numbering, V domains shown, IgG1 kappa) VH: QVQLQESGPGLVKPSQTLSLTCTVSGYSITSDYNSHWIRQPPGKGLEWIGYYHYSGSTNYNPSLKSRVTISRDTSKNQFSLKLSSVTAADTAVYYCARNYGSIYVNYFDYWGQGTLVTVSS VL: EIVLTQSPATLSLSPGERATLSCSASSSVSYMYWYQQKPGQAPRPLIYRTSNLASGIPARFSGSGSGTDFTLTISSLEPEDFAVYYCQQYHSYPTFGGGTKVEIK |  | 1.27 nM | 1.46 nM | 
SA301a heavy chain variant N33bE, C34S (antibody, human IgG1, V domains shown, library variant, human IgG1/kappa, from supernatant) VH: QVQLQESGPGLVKPSQTLSLTCTVSGYSITSDYESHWIRQPPGKGLEWIGYIHYSGSTNYNPSLKSRVTISRDTSKNQFSLKLSSVTAADTAVYYCARNYGSIYVNYFDYWGQGTLVTVSS VL: EIVLTQSPATLSLSPGERATLSCSASSSVSYMYWYQQKPGQAPRPLIYRTSNLASGIPARFSGSGSGTDFTLTISSLEPEDFAVYYCQQYHSYPTFGGGTKVEIK | 0.2 nM |  |  | 0.1 nM
SA301a HC-Y50M (antibody, name in Kabat numbering, V domains shown, IgG1 kappa) VH: QVQLQESGPGLVKPSQTLSLTCTVSGYSITSDYNSHWIRQPPGKGLEWIGMIHYSGSTNYNPSLKSRVTISRDTSKNQFSLKLSSVTAADTAVYYCARNYGSIYVNYFDYWGQGTLVTVSS VL: EIVLTQSPATLSLSPGERATLSCSASSSVSYMYWYQQKPGQAPRPLIYRTSNLASGIPARFSGSGSGTDFTLTISSLEPEDFAVYYCQQYHSYPTFGGGTKVEIK |  | 1.8 nM | 2.06 nM | 
SA301a HC-Y50G (antibody, name in Kabat numbering, V domains shown, IgG1 kappa) VH: QVQLQESGPGLVKPSQTLSLTCTVSGYSITSDYNSHWIRQPPGKGLEWIGGIHYSGSTNYNPSLKSRVTISRDTSKNQFSLKLSSVTAADTAVYYCARNYGSIYVNYFDYWGQGTLVTVSS VL: EIVLTQSPATLSLSPGERATLSCSASSSVSYMYWYQQKPGQAPRPLIYRTSNLASGIPARFSGSGSGTDFTLTISSLEPEDFAVYYCQQYHSYPTFGGGTKVEIK |  | 2.85 nM | 1.03 nM | 
SA301a HC-Y50R (antibody, name in Kabat numbering, V domains shown, IgG1 kappa) VH: QVQLQESGPGLVKPSQTLSLTCTVSGYSITSDYNSHWIRQPPGKGLEWIGRIHYSGSTNYNPSLKSRVTISRDTSKNQFSLKLSSVTAADTAVYYCARNYGSIYVNYFDYWGQGTLVTVSS VL: EIVLTQSPATLSLSPGERATLSCSASSSVSYMYWYQQKPGQAPRPLIYRTSNLASGIPARFSGSGSGTDFTLTISSLEPEDFAVYYCQQYHSYPTFGGGTKVEIK |  | 4.98 nM | 1.19 nM | 
SA301a HC-Y50F (antibody, name in Kabat numbering, V domains shown, IgG1 kappa) VH: QVQLQESGPGLVKPSQTLSLTCTVSGYSITSDYNSHWIRQPPGKGLEWIGFIHYSGSTNYNPSLKSRVTISRDTSKNQFSLKLSSVTAADTAVYYCARNYGSIYVNYFDYWGQGTLVTVSS VL: EIVLTQSPATLSLSPGERATLSCSASSSVSYMYWYQQKPGQAPRPLIYRTSNLASGIPARFSGSGSGTDFTLTISSLEPEDFAVYYCQQYHSYPTFGGGTKVEIK |  | 1.81 nM | 2.18 nM | 
SA301a HC-Y50S (antibody, name in Kabat numbering, V domains shown, IgG1 kappa) VH: QVQLQESGPGLVKPSQTLSLTCTVSGYSITSDYNSHWIRQPPGKGLEWIGSIHYSGSTNYNPSLKSRVTISRDTSKNQFSLKLSSVTAADTAVYYCARNYGSIYVNYFDYWGQGTLVTVSS VL: EIVLTQSPATLSLSPGERATLSCSASSSVSYMYWYQQKPGQAPRPLIYRTSNLASGIPARFSGSGSGTDFTLTISSLEPEDFAVYYCQQYHSYPTFGGGTKVEIK |  | 2.48 nM | 2.17 nM | 
SA301a HC-Y50A (antibody, name in Kabat numbering, V domains shown, IgG1 kappa) VH: QVQLQESGPGLVKPSQTLSLTCTVSGYSITSDYNSHWIRQPPGKGLEWIGAIHYSGSTNYNPSLKSRVTISRDTSKNQFSLKLSSVTAADTAVYYCARNYGSIYVNYFDYWGQGTLVTVSS VL: EIVLTQSPATLSLSPGERATLSCSASSSVSYMYWYQQKPGQAPRPLIYRTSNLASGIPARFSGSGSGTDFTLTISSLEPEDFAVYYCQQYHSYPTFGGGTKVEIK |  | 3.8 nM | 2.97 nM | 
SA301a HC-Y50D (antibody, name in Kabat numbering, V domains shown, IgG1 kappa) VH: QVQLQESGPGLVKPSQTLSLTCTVSGYSITSDYNSHWIRQPPGKGLEWIGDIHYSGSTNYNPSLKSRVTISRDTSKNQFSLKLSSVTAADTAVYYCARNYGSIYVNYFDYWGQGTLVTVSS VL: EIVLTQSPATLSLSPGERATLSCSASSSVSYMYWYQQKPGQAPRPLIYRTSNLASGIPARFSGSGSGTDFTLTISSLEPEDFAVYYCQQYHSYPTFGGGTKVEIK |  | 16.5 nM | 5.28 nM | 
